T1: human OX-40 protein (human, UniProt P43489 29-214, limits assumed)
T1 construct: Homologous family member used as the specificity control
T1 sequence (looked up): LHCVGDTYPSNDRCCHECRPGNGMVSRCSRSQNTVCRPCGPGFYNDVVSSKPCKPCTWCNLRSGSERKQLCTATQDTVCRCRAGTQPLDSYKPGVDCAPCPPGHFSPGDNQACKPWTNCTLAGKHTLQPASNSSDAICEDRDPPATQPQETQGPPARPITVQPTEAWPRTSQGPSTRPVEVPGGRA


Experiments:
[1] = molecular target: T2, human 4-1BB protein (human, UniProt Q07011 24-186, limits assumed); assay: ELISA, human 4-1BB coated at 1 ug/mL, HRP goat-anti-human IgG detection
T2 construct: Coating protein in the ELISAs of Embodiments 4 and 5; also called h4-1BB
Procedure: (§1) The cross-reactive activity of the antibody with cynomolgus monkey 4-1BB molecules is determined by ELISA. The ELISA comprises steps of coating the human 4-1BB or cynomolgus monkey 4-1BB (1 μg/mL) with the ELISA plate, incubating overnight at 4 DEG C.; washing three times with PBST (0.1% Tween 20), blocking with 3% BSA for 1 h; washing three times, adding the purified anti-human 4-1BB antibody prepared in the embodiment 2 and incubating for 1 h; washing three times and adding horse radish peroxidase (HRP) labeled goat-anti-human IgG (1:2000 dilution) and incubating for 1 h; washing three times, then adding the substrate solution (TMB) and developing the color at room temperature in the dark; and finally, adding the stop solution (2N H₂SO₄) and reading the optical density (OD) value at 450 nm.

[2] = molecular target: cynomolgus monkey 4-1BB protein (cynomolgus monkey); assay: ELISA, cynomolgus monkey 4-1BB coated at 1 ug/mL, HRP goat-anti-human IgG detection
Procedure: as §1

[3] = molecular target: T3, human 4-1BB-Fc fusion protein (human, UniProt Q07011 24-186); assay: SPR, Biacore T200, h4-1BB-Fc amine-coupled to chip, antibody 0.3125-5.0 ug/mL as analyte
T3 construct: Antigen amine-coupled to the Biacore chip; also called h4-1BB-Fc fusion protein; h4-1BB; not shown: Fc part
Procedure: Affinity of the antibody: determining binding kinetics of the purified antibody which is prepared in the embodiment 2 and the h4-1BB by using BIAcore T200; coupling 1 mg/mL antigen (h4-1BB-Fc fusion protein) to the surface of a CMS chip by using an amino coupling method, binding at 30 μL/min for 300 s when the concentration of the antibody is within 0.3125-5.0 μg/mL and then dissociating for 300 s; and analyzing data recorded by the Biacore T200 by using Biacore T200 Evaluation Software, wherein analysis results are as shown in Table 1.

[4] = molecular target: T2, human 4-1BB protein; assay: ELISA, plate coated with human 4-1BB protein (1 ug/mL), HRP goat anti-human IgG, OD 450 nm
[5] = molecular target: T1, human OX-40 protein; assay: ELISA, plate coated with human OX-40 protein (1 ug/mL), HRP goat anti-human IgG, OD 450 nm
[6] = molecular target: T2, human 4-1BB protein; assay: ELISA of binding activity before and after humanization; the coated antigen is not named there, taken as 4-1BB from the legend and axis

EC50 [1] [nM] | EC50 [2] [nM] | Kd [3] [nM] | koff [3] [s⁻¹] | kon [3] [M⁻¹ s⁻¹] | EC50 (read off the curve) [4] [µg/mL] | binding result [5] | EC50 (read off the curve) [6] [µg/mL] | Binder
0.67 | 2.67 | 0.0934 | 1.37e-05 | 146000 | ~0.1 | no binding | ~0.09 | ab1 chimeric antibody (anti-human 4-1BB antibody ab1) (antibody, human IgG1, V domains shown, also called anti-h4-1BB chimeric antibody; anti-h4-1BB monoclonal antibody) VH: QVQLQQSGAELVRPGTSVKISCKASGYAFTNYWLGWVKQRPGHGLEWIGDIYPGNGNSYYNEKFKGRATLTADKSSSTVYMQLSSLTSEDSVVYFCTRSSSYYRDVMDYWGQGTSVTVSS VL: DIQMTQSPASLSASVGETVTITCRASENIYSYLVWYQQKQGKSPQLLVYNAKTLAEGVSSRFSGSGSGTQFSLKINSLQPEDFGSYYCQHHYGTPLTFGAGTKLELKR
 |  |  |  |  |  |  | ~0.05 | Humanized 4-1BB antibody (antibody, V domains shown, ab1 after humanization by template replacement with back mutations; also called humanized anti-human 4-1BB antibody; ab1 humanized antibody) VH: QVQLVQSGAEVKKPGASVKVSCKASGYAFTNYWLGWVRQAPGHGLEWMGDIYPGNGNSYYAQKFQGRVTMTRDKSSSTVYMELSSLRSEDTAVYFCTRSSSYYRDVMDYWGQGTLVTVSS VL: DIQLTQSPSFLSASVGDRVTITCRASENIYSYLVWYQQKPGKAPKLLIYNAKTLAEGVPSRFSGSGSGTEFTLTISSLQPEDFATYYCQHHYGTPLTFGAGTKLEIKR

Reference: patent publication US20200325236A1 (REYOUNG SUZHOU BIOLOGY SCIENCE AND TECHNOLOGY, published 2020)
